Measured values from US20180273635A1 (Zymeworks, published 2018).
Where two headings read alike, the source gives them in different places.

Tests used:
Recombinant human HER2 [1] = target: T1, Recombinant human HER2 (human, UniProt P04626 23-652); assay: SPR, post-SEC; ratio to WT v10013
T1 construct: extracellular domain; analyte of the SPR assays; also called HER2 ECD; ECD2 of HER2
Experimental: (§1) The affinity towards HER2 ECD of the samples was measured by SPR on a Biacore T200 as follows. Between 2000 and 4000 RU of anti-human Fc injected at concentration between 5 and 10 μg/ml was immobilized on a CM5 chip using standard amine coupling. Antigen-binding constructs were captured on the anti-human Fc (injected at concentration at 0.51 microg/mL in PBST, 1 min at 10 microl/min) at response levels ranging from 120-270 RU. […] HER2 dilutions were analyzed in duplicates. Sensograms were fit globally to a 1: 1 Langmuir binding model, using the software provided with the Biacore T200. All experiments were conducted at 25° C.
(§2) The affinity of antigen-binding constructs in OA format was determined by SPR following protein A purification. […] Antigen-binding constructs in FSA format were purified by protein A affinity and SEC prior to assessment of affinity by SPR.

Recombinant human HER2 [2] = target: T1, Recombinant human HER2; assay: SPR, pre-SEC; ratio to WT v10013
Experimental: as §1, §2

Recombinant human HER2 [3] = target: T1, Recombinant human HER2; assay: SPR, variant captured on anti-human Fc, HER2 flowed, 25 C, post-SEC
Experimental: as §1, §2

Recombinant human HER2 [4] = target: T1, Recombinant human HER2; assay: SPR, variant captured on anti-human Fc, HER2 flowed, 25 C, pre-SEC
Experimental: as §1

Recombinant human HER2 [5] = target: T2, Recombinant human HER2 (human, UniProt P04626 23-652); assay: SPR at 25 C of the OA variant, logarithm of the association constant
T2 construct: extracellular domain; Analyte of the SPR assays; also called HER2 ECD; ECD2 of HER2
Experimental: as §1

Recombinant human HER2 [6] = target: T2, Recombinant human HER2; assay: calculated from the SPR Ka ratio to WT v10013;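 note: SPR at 25 °C with constructs captured on an anti-human Fc chip and HER2 extracellular domain as analyte, kinetics fitted to a 1:1 Langmuir model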
Recombinant human HER2 [7] = target: T2, Recombinant human HER2; assay: SPR at 25 C of the OA variant, logarithm of the association constant; remark: listed apart in the source
Experimental: as §1

Recombinant human HER2 [8] = target: T2, Recombinant human HER2; assay: SPR at 25 C of the OA variant, equilibrium association constant
Experimental: as §1

Recombinant human HER2 [9] = target: T2, Recombinant human HER2; assay: SPR, Biacore T200, 25 C; variant captured on anti-human Fc, HER2 flowed;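 note: HER2 extracellular domain analyte run as duplicate dilutions over amine-coupled anti-Fc on a CM5 chip, rates from global sensorgram fitting with a 1:1 Langmuir model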
Experimental: as §1

Recombinant human HER2 [10] = target: T2, Recombinant human HER2; assay: SPR, 25 C; Ka ratio to WT v10013;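 note: constructs captured via anti-human Fc on CM5 chip, HER2 ECD as analyte in duplicate dilutions, sensorgrams globally fit to 1:1 Langmuir model on Biacore T200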
Experimental: as §1

Recombinant human HER2 [11] = target: T2, Recombinant human HER2; assay: SPR at 25 C of the OA variant, equilibrium association constant; remark: listed apart in the source
Experimental: as §1

Binder	Ka, mut/Ka, WT (Recombinant human HER2 [1])	Ka, mut/Ka, WT (Recombinant human HER2 [2])	Kd (Recombinant human HER2 [3]) [nM]	Kd (Recombinant human HER2 [4]) [nM]	Log Ka (Recombinant human HER2 [5])	ΔΔG (Recombinant human HER2 [6]) [kcal/mol]	Log Ka (Recombinant human HER2 [7])	Ka (Recombinant human HER2 [8]) [M⁻¹]	Kd (Recombinant human HER2 [9]) [nM]	koff (Recombinant human HER2 [9]) [s⁻¹]	kon (Recombinant human HER2 [9]) [M⁻¹ s⁻¹]	Ka, mut/Ka, WT (Recombinant human HER2 [10]) [fold]	Ka (Recombinant human HER2 [11]) [M⁻¹]
variant 10014 (antibody, OA format; combines the mutations of 12610 and 12611; also called v10014) heavy: EVQLVESGGGLVQPGGSLRLSCAASGFTFADYTMDWVRQAPGKGLEWVADVNPNSGGSIYNQRFKGRFTLSVDRSKNTLYLQMNSLRAEDTAVYYCARNLGPSFYFDYWGQGTLVTVSSASTKGPSVFPLAPSSKSTSGGTAALGCLVKDYFPEPVTVSWNSGALTSGVHTFPAVLQSSGLYSLSSVVTVPSSSLGTQTYICNVNHKPSNTKVDKKVEPKSCDKTHTCPPCPAPELLGGPSVFLFPPKPKDTLMISRTPEVTCVVVDVSHEDPEVKFNWYVDGVEVHNAKTKPREEQYNSTYRVVSVLTVLHQDWLNGKEYKCKVSNKALPAPIEKTISKAKGQPREPQVYVYPPSRDELTKNQVSLTCLVKGFYPSDIAVEWESNGQPENNYKTTPPVLDSDGSFALVSKLTVDKSRWQQGNVFSCSVMHEALHNHYTQKSLSLSPG light: not shown Fc: not shown	8	7.9	2.6	2.5	–	–	–	–	–	–	–	–	–
Variant 14032 (antibody, human IgG1, kappa, OA (one-armed) format; clones 8780, 1811, 4372; also called v14032) heavy: EVQLVESGGGLVQPGGSLRLSCAASGFTFQDYTMDWVRQAPGKGLEWVADVNPNSGGSIYNQRFKGRFTLSVDRSKNTLYLQMNSLRAEDTAVYYCARNLGPWFYFDYWGQGTLVTVSSASTKGPSVFPLAPSSKSTSGGTAALGCLVKDYFPEPVTVSWNSGALTSGVHTFPAVLQSSGLYSLSSVVTVPSSSLGTQTYICNVNHKPSNTKVDKKVEPKSCDKTHTCPPCPAPELLGGPSVFLFPPKPKDTLMISRTPEVTCVVVDVSHEDPEVKFNWYVDGVEVHNAKTKPREEQYNSTYRVVSVLTVLHQDWLNGKEYKCKVSNKALPAPIEKTISKAKGQPREPQVYVYPPSRDELTKNQVSLTCLVKGFYPSDIAVEWESNGQPENNYKTTPPVLDSDGSFALVSKLTVDKSRWQQGNVFSCSVMHEALHNHYTQKSLSLSPG light: not shown not shown	–	–	–	–	9.1	-1.8	9.1	1.3e+09	0.79	3.9e-05	49000	21	1.3e+09
Variant 14050 (antibody, human IgG1, kappa, OA (one-armed) format; clones 8780, 7919, 4372; also called v14050) heavy: EVQLVESGGGLVQPGGSLRLSCAASGFTFQDYTMDWVRQAPGKGLEWVADVNPNSGGSIYNQRFKGRFTLSVDRSKNTLYLQMNSLRAEDTAVYYCARNLGPWFYFDYWGQGTLVTVSSASTKGPSVFPLAPSSKSTSGGTAALGCLVKDYFPEPVTVSWNSGALTSGVHTFPAVLQSSGLYSLSSVVTVPSSSLGTQTYICNVNHKPSNTKVDKKVEPKSCDKTHTCPPCPAPELLGGPSVFLFPPKPKDTLMISRTPEVTCVVVDVSHEDPEVKFNWYVDGVEVHNAKTKPREEQYNSTYRVVSVLTVLHQDWLNGKEYKCKVSNKALPAPIEKTISKAKGQPREPQVYVYPPSRDELTKNQVSLTCLVKGFYPSDIAVEWESNGQPENNYKTTPPVLDSDGSFALVSKLTVDKSRWQQGNVFSCSVMHEALHNHYTQKSLSLSPG light: not shown not shown	–	–	–	–	8.8	-1.5	8.8	6.2e+08	1.6	7.4e-05	46000	12	6.2e+08
variant 12610 (antibody, human IgG1, kappa, OA pertuzumab variant, HC T30A (Kabat); also called v12610) heavy: EVQLVESGGGLVQPGGSLRLSCAASGFTFADYTMDWVRQAPGKGLEWVADVNPNSGGSIYNQRFKGRFTLSVDRSKNTLYLQMNSLRAEDTAVYYCARNLGPSFYFDYWGQGTLVTVSSASTKGPSVFPLAPSSKSTSGGTAALGCLVKDYFPEPVTVSWNSGALTSGVHTFPAVLQSSGLYSLSSVVTVPSSSLGTQTYICNVNHKPSNTKVDKKVEPKSCDKTHTCPPCPAPELLGGPSVFLFPPKPKDTLMISRTPEVTCVVVDVSHEDPEVKFNWYVDGVEVHNAKTKPREEQYNSTYRVVSVLTVLHQDWLNGKEYKCKVSNKALPAPIEKTISKAKGQPREPQVYVYPPSRDELTKNQVSLTCLVKGFYPSDIAVEWESNGQPENNYKTTPPVLDSDGSFALVSKLTVDKSRWQQGNVFSCSVMHEALHNHYTQKSLSLSPG light: not shown not shown	4.5	3.9	4.6	5.1	–	–	–	–	–	–	–	–	–
